According to patent US20250197473A1:
Where two headings read alike, the source gives them in different places.

Experiments:
Experiment in all cases: ELISA
CTLA-4 [1] = target: CTLA-4
PD-1 [2] = target: PD-1
CTLA-4 [3] = target: CTLA-4; remark: listed apart in the source
PD-1 [4] = target: PD-1; remark: listed apart in the source

Row | CLTA-4 Relative Binding (CTLA-4 [1]) | PD-1 Relative Binding (PD-1 [2]) | CLTA-4 Relative Binding (CTLA-4 [3]) | PD-1 Relative Binding (PD-1 [4]) | Substance
1 | 0.266 | 0.088 | 1.65 | 3.37 | PD-L2/B7.1 Dual Checkpoint (dual checkpoint inhibitor composition comprising, from the N-terminus to the C-terminus, a PD-L2 domain linked to a B7.1 domain plus a Fc domain) (Fc fusion)
2 | – | – | 0.008 | 1.77 | PD-L2 domain only plus Fc construct (Fc fusion)
3 | 0.236 | 0 | 3.26 | 0.004 | B7.1 domain only plus Fc construct (Fc fusion)
4 | 0.548 | 0 | – | – | B7.1/PD-L2 composition (a B7.1 domain linked to a PD-L2 domain plus an Fc domain) (Fc fusion)
